# Test: soluble on expression in E. coli; label from the status in PepcDB or PDB records
row,Sequence,soluble on expression in E. coli
1,MGSDKIHHHHHHMSQIIAIHSFRGGTGKSNIIANIGATMALKGQRVGIIDTDIQSPGIHIIFGLKEEKIRLTLNDYLWKRCDIQDTAYDVTDTLIAESGNTDKIRGSLYLIPSSIKAAEIARVLREGYDVVRLHDGFQEIIRSLKLDYLLIDTHPGLNEETLISIGIANTLLIILRPDNQDFQGTAVTVDVARKLKAARILLVLNKALASFNFTDLQQQLEQIYDVPVVGILPLAEDMVQLASKGLFCLRYPQHPITQTIQEITDQLAGLVVSHQ,not soluble
2,MGSDKIHHHHHHMGLASPWQVSISSFDAEKKRLDIHLDVAPGSTFCCPECGILKLQSFPWSGRDSGFTLLFEAMIMVMARSMAVKAIATIVGEHDTRIWRIVHHYVDQAREMEDYSAVTTVGVDEPSSKRGHNSVTLFADLARSKVLFATEGKDASTVERFRDDLVAHKGNPASVTECCSDMSPACISGIGSHFVNAHLSFDKFHVMQIINHAVDEVRRQEQQERPELKKSRYLWLKNQQNLKAKQRNRLEELSLAKLNLKTARADRMRLAFQECFNQPVTLAESFLKKWCFRAANSISPYPLETARSQDNDGWTHRASWAGI,not soluble
3,MPPDDPSGRHGPRIESFLSKVPVVSSNPLVCPYARKCTYGNKCKFYHPERANGQHMSVTERLMKENQQKKSLGAVKSMQYEMFKNKHAALSRTQSLNVVKQLTENMSQLPPTPESPMQMPRQHMQLQQANSAPWQQHTVVQRHGSSPLTPVNRQMNVYPDMYNMSQQQNHQVLPNQHGVIGGQRPPKMTTTVSQTHLFAPSTAVWGHSELSVGPVNTGSDESLAEVRSRVHFHLCNIFPHDFVESVMAANPEEVNAPVLCELIIRAQKEYRK,not soluble
4,MGSDKIHHHHHHVMARIHNRDWCLACTSSLKELPRHVYFRAYSLKGGTCVQGHEHVWWQFLFARNGLMQVQAGATTLTLPPDYGVWIPPGCVHTLWIGEEVELESLYIEPTAVAIQDQEPRVVMVDEFVRAFIHHGCTSIPVKYDEDGADGRKVKVLLDSLQSLPDAPFNLPFPTEPRLLEVCLTIQSAPHLAHTLDESAGLARMSSRTFTRHFLRATGLPYHTWRQRMRLLGSLEMLRSDITVTEVALTIGYSTPSAFTHAFKQLFGKSPSRFTRPEPK,not soluble
5,MSNTLFDDIFQVSEVDPGRYNKVCRIEAASTTQDQCKLTLDINVELFPVAAQDSLTVTIASSLNLEDTPANDSSATRSWRPPQAGDRSLADDYDYVMYGTAYKFEEVSKDLIAVYYSFGGLLMRLEGNYRNLNNLKQENAYLLIRR,soluble
6,MKHTTKQMEILSDIRTLLHKKEEHLKRQNEKFLRETGVSSMSLSELHVIECIGKNGLMNVTAITTEMGMTKGAISKICTKLFQKQFVEKLQMLDNQKEIFFSLTESGNEIYKAHEKLHKQAEEKWLLLLDGYTKEEQDFIQRFIKDVSGHLEI,not soluble
7,MLKIDAIAFFGSKTKLANVAGVRLASVAAWGELVPEGRAMRLQEASGGELQYDPKVYDEYRKAKRAGRLNNENHH,not soluble
8,MGSDKIHHHHHHKAVPLASINGEWNIIEVNGSKVTPGESRTLPFITFDTATGRVSGNSGCNRMMGSFDVNAKPGSMELKGMASTRMMCPDMTTERNVLGALAQVKGYKKAGKDKMFLCNESNRPVVVLEKKEADVKLSVLNGEWKIKEVNGEAITSGMEKQPFIAFDVKKKTLHGNAGCNLINGGFETSTTNAKSISFPGVASTMMACPDMEVEGKILKAMNEVKSFDKLSGGGIGLYDANNALVIVLEK,not soluble
9,MLKVKKEVLEKMIKQAERDYPYETCGLLIGKSEGGIRIAYEAFETPNANPDRKHDRYEIAPKDYMRAEDYAISKGMEIVGVYHSHPDHPDRPSQFDLQRAFPDLSYIIFSVQKGKVASYRSWELKGDKFEEEEVEVFE,not soluble
10,DIVLTQSPTTMAASPGEKITITCSASSSISSNYLHWYQQKPGFSPKLLIYRTSNLASGVPARFSGSGSGTSYSLTIGTMEAEDVATYYCQQGSSIPLTFGAGTKLELKRADAAPTVSIFPPSSEQLTSGGASVVCFLNNFYPKDINVKWKIDGSERQNGVLNSWTDQDSKDSTYSMSSTLTLTKDEYERHNSYTCEATHKTSTSPIVKSFNRNEC,soluble
11,MDQGMFYLSAAYIVKTMISGGNLLKEYIEERAVAIANYIIDYNATVRQTARKFGISKSTVHKDVTDRLENINPSLAAQARVVLDINKAERHIRGGMATKEKYQHQLQACSRK,not soluble
12,MISIPVAQQQKLPRLVLPRVYGFPPNRETLGGTAYLIVENDGNTLIDSPPWTDGSQHWLREQGGVKRLILTHRGAIARVRAIQDTFDCEVMIHAQEAYLLPQVTVTPFNHHLAIGETLEILWTPGHSPGSACVYWSCQGGVLFTGRHLLPTPTGELAPIKTATTFHWPRQLRSVEALKAFCRQKSLSYLCPGANMGFLRGTLAIANAQAVLQGLSVDNLLCDKFLEHHHHHH,not soluble
13,MLRRGYKASERRRHLSERLSWHQDQALSSSIYLLREMGPTGFLLREEEPEYMDFRVFLGNPHVCNCSTFPKGGELCKHICWVLLKKFELPRNHESALQLGLGEREISDLLRGIHRVQTPQPGTNDENEHVEEDGYIKQKEIDSEDICSICQELLLEKKLPVTFCRFGCGNSIHIKCMKILANYQSTSNTSMLKCPLCRKEFAPLKLILEEFKNSSKLVAAAEKERLDKHLGIPCNNCKQFPIEGKCYKCTECIEYHLCQECFDSYCHLSHTFTFREKRNQKWRSLEKRADEVVKYIDTKNETEEKMSHFQEKQGQVYTPKHIVRSLPLQLITKNSKLLAPGYQCLLCLKAFHLGQHTRLLPCTHKFHRKCIDNWLFHKCNSCPIGGQVIYNPLTWKNSAVNGQAHQSVSNRDIIHLSKQKEPDLFIPGTGLVLKQNRLGILPSIPQCNFDELNTPQSPKDAYENTTIDNLCSIKLDNSNSKKLTYEYKISQHFPRYLQDLPTVSFGKIPSQTLLPPIVHKNIVCPTAMESPCISGKYHTSLSRVTKGCKCNNHNLKKTPATKIREDNKRSTLLPEDFNLIVNWSTAKLSLSKRYSNCMGEITRKCSHLSRQPVSHSVNTKSTELSLIIEGVQL,soluble
14,MSKNYHIAVLPGDGIGPEVMAQALKVMDAVRSRFDMRITTSHYDVGGIAIDNHGHPLPKATVEGCEQADAILFGSVGGPKWENLPPESQPERGALLPLRKHFKLFSNLRPAKLYQGLEAFCPLRADIAANGFDILCVRELTGGIYFGQPKGREGSGQYEKAFDTEVYHRFEIERIARIAFESARKRRRKVTSIDKANVLQSSILWREIVNDVAKTYPDVELAHMYIDNATMQLIKDPSQFDVLLCSNLFGDILSDECAMITGSMGMLPSASLNEQGFGLYEPAGGSAPDIAGKNIANPIAQILSLALLLRYSLDANDAATAIEQAINRALEEGVRTGDLARGAAAVSTDEMGDIIARYVAEGV,soluble
15,MPRPGKDSYDEQKPPYSYIWLTYMAIQDSDDKMLPLTEIYKYIMDRFPFYRKNTQRWQNSLRHNLSFNDCFIKIPRRADRPGKGSYWAVHPNASGMFENGSCLRRRKRFRARGGQDDDDDDFHHPAPSKISRKNPLPLLPEPPITPPLLSSLFPNLPPSLPNFCLFPPGMDPTKSLLLNPLSLLLMPHFLKNSSNFESSTPHSETSEISGSGSSSSKTPTPEAGFNSSFSIESILSS,not soluble
16,MGSDKIHHHHHHMNYLKLKQDVQAGRVAPVYFMYGTELFLMEDLIQDILSVTLSDEERDMNVSSYSLTDVPIEAALEEAETVPFFGSKRVVILKDAALFTSQKLDVEHDVKRLEQYILNPVPETVLLIMAPYEKLDERKKITKLIKKESLVLEAKPLDEGEAKAWLSSLASELQVEMDEKAIETLLGMTGLRLTQLASEMNKLALYVGEGGIIRSEDVTLLVAKTLDQNIFDLIDFAINQRTHQALSLYHELLKQKEEPLKLLALLTRQFRIMYQVKELGRRGYTPNQMAKPLKIHPYVAKLAGKKAASMSDQLLYSLIEKAADTEFAIKSGKVDKVLALELFLLTMGSRESVG,not soluble
17,MEFGRNPLSMTSTKPTLLNVLDDVGEAALHAIPKVDDITSHKIYVIAVQPVSFSDIESQAVKQDASSPNNCCCSCMHGVLRFFAELCCNCCAGCVQGICQG,not soluble
18,MSLRPNHAAQSLRSRTSKTIGCMFSDVANPLYARAFRALEEHFRREGYMLLLANGLNDAEREIDIIQTFQLRGMDGVILAPGNERHPGVLDAVRRLSMPAVIYDRDLAVDADAVLFDHVAGVKAAIHHLVELGHTRIALALWQVKSRPVRRRIEGYKAAFKAAGLPVPDLILQEPTPTSSAFDDVTRLLQLPDPPTAFLAQGTHTLTSTLRAIAKQGLRVPEDVSVIGIGDTDFAQTYDPPLTVLRTPTDEVAAHAVEMLLSRLAAKGDASLSPRKALIQFDLILRESCAPVAREGHHHHHH,soluble
19,MATRFMTDPHAMRDMAGRFEVHAQTVEDEARRMWASAQNISGAGWSGMAEATSLDTMAQMNQAFRNIVNMLHGVRDGLVRDANNYEQQEQASQQILSS,not soluble
20,MGSDKIHHHHHHMSINVLIVDDSLSACRVLSRHFLLLDVDKVEFCRDARSAIRTLSKYSDDYQIVVVDLHMPEVDGIEFLMRLSKMEFKGGIIIASGMESRIVEAASQLVEASKLRLLGALMKPVTTEQLRVCVERYRLMAFQGNGVRHKGLMSIDEIRRAINSNKIIPYYQAQVDIASGKIKGFEVLCRLQQGTRLQLITPDKFIDVAECNNALNSLTTKLLNNAIPEWALISQFESCKQCHLSINLTPKQLNQSGWHTRLMQYCEQNLLSPSRLTVEITENQVLDKQRQHSTISQLRMNRIGVAIDDFGTGYTNLSQLCTLPISELKLDRSLVHGIHKDPVSQTILKSMQAISGKLGIHLVAEGVEDIHDLNYLEQIEDISLQGYLICRPKPYSELVRWLKARERLVQA,not soluble
21,GPGSMTDFPKLNRIKSDDENMEKIHVAARKGQTDEVRRLIETGVSPTIQNRFGCTALHLACKFGCVDTAKYLASVGEVHSLWHGQKPIHLAVMANKTDLVVALVEGAKERGQMPESLLNECDEREVNEIGSHVKHCKGQTALHWCVGLGPEYLEMIKILVQLGASPTAKDKADETPLMRAMEFRNREALDLMMDTVPSKSSLRLDYANKQGNSHLHWAILINWEDVAMRFVEMGIDVNMEDNEHTVPLYLSVRAAMVLLTKELLQKTDVFLIQACPYHNGTTVLPDRVVWLDFVPAAADPSKQEVLQLLQEKLDEVVRSLNTGAGGAVKRKKKAAPAVKRMKLAPSAPVRTRSRSRARSSAVSK,soluble
22,MGSDKIHHHHHHAPSEAQQFTEFWTPGKPNPSICKSPLLVSTPLGLPRCLQASNVVKRLQKLEDIASLNDGNRAAATPGYQASVDYVKQTLQKAGYKVSVQPFPFTAYYPKGPGSLSATVPQPVTYEWEKDFTYLSQTEAGDVTAKVVPVDLSLGAGNTSTSGCEAEDFANFPAGSIALIQRGTCNFEQKAENAAAAGAAGVIIFNQGNTDDRKGLENVTVGESYEGGIPVIFATYDNGVAWSQTPDLQLHLVVDVVRKKTETYNVVAETRRGNPNNVVMVGAHLDSVFEGPGINDNGSGSAAQLEMAVLLAKALPVNKVRFAWWGAEEAGLVGSTHYVQNLAPEEKKKIKAYLNFDMIGSPNFGNFIYDGDGSDFGLQGPPGSAAIERLFEAYFRLRGQQSEGTEIDFRSDYAEFFNSGIAFGGLFTGAEGLKTEEQAQKYGGTAGKAYDECYHSKCDGIANINQDALEIHSDAMAFVTSWLSLSTKVVDDEIAAAGQKAQSRSLQMQKSASQIERWGHDFIK,not soluble
